Article PMC9237092, “Structural basis for defective membrane targeting of mutant enzyme in human VLCAD deficiency” (Nature Communications, 2022)

Molecular target: the molecule itself
Test: SEC; Superdex 200 10/300 GL, 4 °C, 250 mM NaCl, 50 mM Tris, pH 8.0; purified VLCAD proteins; peak at ~150 kDa

Row | Protein | stoichiometry N
1 | full-length human VLCAD (very long-chain acyl-CoA dehydrogenase) lacking its cleavable leader sequence, wild type (enzyme, UniProt P49748 41-655, looked up, mature protein aa 1-615. numbers count on: the mature protein; pET19b vector; also called wild-type VLCAD; full-length VLCAD; source: E. coli BL21(DE3), purified (Ni-NTA, SEC)) AGGAAQLALDKSDSHPSDALTRKKPAKAESKSFAVGMFKGQLTTDQVFPYPSVLNEEQTQFLKELVEPVSRFFEEVNDPAKNDALEMVEETTWQGLKELGAFGLQVPSELGGVGLCNTQYARLVEIVGMHDLGVGITLGAHQSIGFKGILLFGTKAQKEKYLPKLASGETVAAFCLTEPSSGSDAASIRTSAVPSPCGKYYTLNGSKLWISNGGLADIFTVFAKTPVTDPATGAVKEKITAFVVERGFGGITHGPPEKKMGIKASNTAEVFFDGVRVPSENVLGEVGSGFKVAMHILNNGRFGMAAALAGTMRGIIAKAVDHATNRTQFGEKIHNFGLIQEKLARMVMLQYVTESMAYMVSANMDQGATDFQIEAAISKIFGSEAAWKVTDECIQIMGGMGFMKEPGVERVLRDLRIFRIFEGTNDILRLFVALQGCMDKGKELSGLGSALKNPFGNAGLLLGEAGKQLRRRAGLGSGLSLSGLVHPELSRSGELAVRALEQFATVVEAKLIKHKKGIVNEQFLLQRLADGAIDLYAMVVVLSRASRSLSEGHPTAQHEKMLCDTWCIEAAARIREGMAALQSDPWQQELYRNFKSISKALVERGGVVTSNPLGF | 2
2 | full-length human VLCAD A450P (enzyme, UniProt P49748 41-655, looked up, Mutation observed in patients with VLCAD deficiency; made by site-directed mutagenesis of the pET19b construct; also called A450P variant; source: E. coli BL21(DE3), purified (Ni-NTA, SEC)) AGGAAQLALDKSDSHPSDALTRKKPAKAESKSFAVGMFKGQLTTDQVFPYPSVLNEEQTQFLKELVEPVSRFFEEVNDPAKNDALEMVEETTWQGLKELGAFGLQVPSELGGVGLCNTQYARLVEIVGMHDLGVGITLGAHQSIGFKGILLFGTKAQKEKYLPKLASGETVAAFCLTEPSSGSDAASIRTSAVPSPCGKYYTLNGSKLWISNGGLADIFTVFAKTPVTDPATGAVKEKITAFVVERGFGGITHGPPEKKMGIKASNTAEVFFDGVRVPSENVLGEVGSGFKVAMHILNNGRFGMAAALAGTMRGIIAKAVDHATNRTQFGEKIHNFGLIQEKLARMVMLQYVTESMAYMVSANMDQGATDFQIEAAISKIFGSEAAWKVTDECIQIMGGMGFMKEPGVERVLRDLRIFRIFEGTNDILRLFVALQGCMDKGKELSGLGSPLKNPFGNAGLLLGEAGKQLRRRAGLGSGLSLSGLVHPELSRSGELAVRALEQFATVVEAKLIKHKKGIVNEQFLLQRLADGAIDLYAMVVVLSRASRSLSEGHPTAQHEKMLCDTWCIEAAARIREGMAALQSDPWQQELYRNFKSISKALVERGGVVTSNPLGF | 2
3 | full-length human VLCAD L462P (enzyme, UniProt P49748 41-655, looked up, Mutation observed in patients with VLCAD deficiency; made by site-directed mutagenesis of the pET19b construct; also called L462P mutant; source: E. coli BL21(DE3), purified (Ni-NTA, SEC)) AGGAAQLALDKSDSHPSDALTRKKPAKAESKSFAVGMFKGQLTTDQVFPYPSVLNEEQTQFLKELVEPVSRFFEEVNDPAKNDALEMVEETTWQGLKELGAFGLQVPSELGGVGLCNTQYARLVEIVGMHDLGVGITLGAHQSIGFKGILLFGTKAQKEKYLPKLASGETVAAFCLTEPSSGSDAASIRTSAVPSPCGKYYTLNGSKLWISNGGLADIFTVFAKTPVTDPATGAVKEKITAFVVERGFGGITHGPPEKKMGIKASNTAEVFFDGVRVPSENVLGEVGSGFKVAMHILNNGRFGMAAALAGTMRGIIAKAVDHATNRTQFGEKIHNFGLIQEKLARMVMLQYVTESMAYMVSANMDQGATDFQIEAAISKIFGSEAAWKVTDECIQIMGGMGFMKEPGVERVLRDLRIFRIFEGTNDILRLFVALQGCMDKGKELSGLGSALKNPFGNAGLLPGEAGKQLRRRAGLGSGLSLSGLVHPELSRSGELAVRALEQFATVVEAKLIKHKKGIVNEQFLLQRLADGAIDLYAMVVVLSRASRSLSEGHPTAQHEKMLCDTWCIEAAARIREGMAALQSDPWQQELYRNFKSISKALVERGGVVTSNPLGF | 2
